From publication PMC13082335, “Matrix plasticity and the molecular basis of extracellular filament assembly in Bacillus cereus” (Science Advances, 2026)

B1: N-domain(39-190)-His of CapP (domain or fragment)
chain: AAFIHETKVEATLSTAIIFPKTVNTLKEQSEKHKQFIEREYGTMKGKLKATSIEEIKQAISVWQQGREKIVAEKEALQNVYTEIEAPYNQIQEELKVNKDESMQQVSIYVNEGFRSIKEKRDYIEKEISLKAIDEQIQALQQQLNVAIEAEG
notes: CapP (BC1280) of Bacillus cereus ATCC14579, residues A39 to G190 (N-terminal domain); also called N-terminal domain; N-terminal construct; source: E. coli Lemo21 (DE3) pLysS, pET24b, purified under native conditions (HisTrap, Superdex 75 SEC); not shown: His6, C-terminal, kept

Key:
[1] = target: CapP-His (full-length CapP, BC1280, with C-terminal polyhistidine tag) (Bacillus cereus ATCC14579) (UniProt Q81GC7); assay: native gel or EMSA; native PAGE (Any kD Mini-PROTEAN TGX), 25 mM tris, 192 mM glycine, 200 V, NativeMark marker, Coomassie; second SEC peak
[2] = target: the molecule itself; assay: as above

Row | Molecule | stoichiometry N [1] | stoichiometry N [2]
1 | CapP-His (full-length CapP, BC1280, with C-terminal polyhistidine tag) (from UniProt Q81GC7 1-279) (natural protein) | 15 | 
2 | B1 |  | ~15
